From US11135246B2, “Peptides and combination of peptides for use in immunotherapy against leukemias and other cancers” (Immatics Biotechnologies GmbH, priority 2017, dated 2021)

Target: HLA-B*44:02 (Homo sapiens, UniProt P01889, A223V/A65T/A93T/A95T/D201E/D98Y/E176V/E187L/E204Q/E69K/G107R/H137Y/K202T/L105A/L119I/N104T/N87E/Q56L/Q94N/R106L/R155S/R180D/S101N/S121R/S35A/S48T/T118I/V36M/W191S/Y140D/Y91S)
Experiment: MHC binding assay, UV-ligand exchange with β2m ELISA, HLA-B*44:02
Conditions: binding to HLA-B*44:02, UV-ligand exchange
Excerpt: Candidate peptides for T cell based therapies according to the present invention were further tested for their MHC binding capacity (affinity). The individual peptide-MHC complexes were produced by UV-ligand exchange, where a UV-sensitive peptide is cleaved upon UV-irradiation, and exchanged with the peptide of interest as analyzed. Only peptide candidates that can effectively bind and stabilize the peptide-receptive MHC molecules prevent dissociation of the MHC complexes. To determine the yield of the exchange reaction, an ELISA was performed based on the detection of the light chain (β2m) of stabilized MHC complexes. The assay was performed as generally described in Rodenko et al. (Rodenko et al., 2006).
96 well MAXISorp plates (NUNC) were coated over night with 2 ug/ml streptavidin in PBS at room temperature, washed 4× and blocked for 1 h at 37° C. in 2% BSA containing blocking buffer. Refolded HLA-A*02:01/MLA-001 monomers served as standards, covering the range of 15-500 ng/ml. Peptide-MHC monomers of the UV-exchange reaction were diluted 100-fold in blocking buffer. Samples were incubated for 1 h at 37° C., washed four times, incubated with 2 ug/ml HRP conjugated anti-β2m for 1 h at 37° C., washed again and detected with TMB solution that is stopped with […]. Absorption was measured at 450 nm. Candidate peptides that show a high exchange yield (preferably higher than 50%, most preferred higher than 75%) are generally preferred for a generation and production of antibodies or fragments thereof, and/or T cell receptors or fragments thereof, as they show sufficient avidity to the MHC molecules and prevent dissociation of the MHC complexes.

Substance: 122 (KELPGVKKY; listed as Homo sapiens) [compound 122]
- Peptide exchange (MHC class I binding score, peptide exchange yield): “++” (>20% = ++)

Substance: 123 (EENPGKFLF; listed as Homo sapiens) [compound 123]
- Peptide exchange (MHC class I binding score, peptide exchange yield): “+++” (>50 = +++)

Substance: 124 (SESLPKEAF; listed as Homo sapiens) [compound 124]
- Peptide exchange (MHC class I binding score, peptide exchange yield): “++” (>20% = ++)

Substance: 125 (SESTFDRTF; listed as Homo sapiens) [compound 125]
- Peptide exchange (MHC class I binding score, peptide exchange yield): “+++” (>50 = +++)

Substance: 126 (EENKPGIVY; listed as Homo sapiens) [compound 126]
- Peptide exchange (MHC class I binding score, peptide exchange yield): “++” (>20% = ++)

Substance: 127 (TEYPVFVY; listed as Homo sapiens) [compound 127]
- Peptide exchange (MHC class I binding score, peptide exchange yield): “+” (>10% = +)

Substance: 128 (GENDRLNHTY; listed as Homo sapiens) [compound 128]
- Peptide exchange (MHC class I binding score, peptide exchange yield): “++” (>20% = ++)

Substance: 129 (GEGAYGKVF; listed as Homo sapiens) [compound 129]
- Peptide exchange (MHC class I binding score, peptide exchange yield): “++++” (>75% = ++++)

Substance: 130 (EEEHGKGREY; listed as Homo sapiens) [compound 130]
- Peptide exchange (MHC class I binding score, peptide exchange yield): “++” (>20% = ++)

Substance: 131 (EEFETIERF; listed as Homo sapiens) [compound 131]
- Peptide exchange (MHC class I binding score, peptide exchange yield): “++” (>20% = ++)

Substance: 132 (GELPAVRDL; listed as Homo sapiens) [compound 132]
- Peptide exchange (MHC class I binding score, peptide exchange yield): “++” (>20% = ++)

Substance: 133 (AEHNFVAKA; listed as Homo sapiens) [compound 133]
- Peptide exchange (MHC class I binding score, peptide exchange yield): “+++” (>50 = +++)

Substance: 134 (SEYADTHYF; listed as Homo sapiens) [compound 134]
- Peptide exchange (MHC class I binding score, peptide exchange yield): “+++” (>50 = +++)

Substance: 135 (NEIKVYITF; listed as Homo sapiens) [compound 135]
- Peptide exchange (MHC class I binding score, peptide exchange yield): “+++” (>50 = +++)

Substance: 136 (AEYKGRVTL; listed as Homo sapiens) [compound 136]
- Peptide exchange (MHC class I binding score, peptide exchange yield): “++++” (>75% = ++++)

Substance: 137 (GELGGSVTI; listed as Homo sapiens) [compound 137]
- Peptide exchange (MHC class I binding score, peptide exchange yield): “+++” (>50 = +++)

Substance: 138 (SQAPAARAF; listed as Homo sapiens) [compound 138]
- Peptide exchange (MHC class I binding score, peptide exchange yield): “++” (>20% = ++)

Substance: 139 (RENQVLGSGW; listed as Homo sapiens) [compound 139]
- Peptide exchange (MHC class I binding score, peptide exchange yield): “+++” (>50 = +++)

Substance: 140 (EYDLKWEF; listed as Homo sapiens) [compound 140]
- Peptide exchange (MHC class I binding score, peptide exchange yield): “++” (>20% = ++)

Substance: 141 (REYEYDLKWEF; listed as Homo sapiens) [compound 141]
- Peptide exchange (MHC class I binding score, peptide exchange yield): “+++” (>50 = +++)

Substance: 142 (TEIFKEHNF; listed as Homo sapiens) [compound 142]
- Peptide exchange (MHC class I binding score, peptide exchange yield): “++” (>20% = ++)

Substance: 143 (YEYDLKWEF; listed as Homo sapiens) [compound 143]
- Peptide exchange (MHC class I binding score, peptide exchange yield): “+++” (>50 = +++)

Substance: 144 (TEGKRYFTW; listed as Homo sapiens) [compound 144]
- Peptide exchange (MHC class I binding score, peptide exchange yield): “+++” (>50 = +++)

Substance: 145 (AEPLVGQRW; listed as Homo sapiens) [compound 145]
- Peptide exchange (MHC class I binding score, peptide exchange yield): “+++” (>50 = +++)

Substance: 146 (SESKTVVTY; listed as Homo sapiens) [compound 146]
- Peptide exchange (MHC class I binding score, peptide exchange yield): “+++” (>50 = +++)

Substance: 147 (KEVPRSYEL; listed as Homo sapiens) [compound 147]
- Peptide exchange (MHC class I binding score, peptide exchange yield): “++” (>20% = ++)

Substance: 148 (REYNEYENI; listed as Homo sapiens) [compound 148]
- Peptide exchange (MHC class I binding score, peptide exchange yield): “++” (>20% = ++)

Substance: 149 (SEKETVAYF; listed as Homo sapiens) [compound 149]
- Peptide exchange (MHC class I binding score, peptide exchange yield): “+++” (>50 = +++)

Substance: 150 (EEVTDRSQL; listed as Homo sapiens) [compound 150]
- Peptide exchange (MHC class I binding score, peptide exchange yield): “++” (>20% = ++)

Substance: 151 (EVDASIFKAW; listed as Homo sapiens) [compound 151]
- Peptide exchange (MHC class I binding score, peptide exchange yield): “++” (>20% = ++)

Substance: 152 (AELLAKELY; listed as Homo sapiens) [compound 152]
- Peptide exchange (MHC class I binding score, peptide exchange yield): “++” (>20% = ++)

Substance: 153 (KEFEQVPGHL; listed as Homo sapiens) [compound 153]
- Peptide exchange (MHC class I binding score, peptide exchange yield): “++” (>20% = ++)

Substance: 154 (AEPGPVITW; listed as Homo sapiens) [compound 154]
- Peptide exchange (MHC class I binding score, peptide exchange yield): “+++” (>50 = +++)

Substance: 155 (NEFPVIVRL; listed as Homo sapiens) [compound 155]
- Peptide exchange (MHC class I binding score, peptide exchange yield): “+++” (>50 = +++)

Substance: 156 (FEVESLFQKY; listed as Homo sapiens) [compound 156]
- Peptide exchange (MHC class I binding score, peptide exchange yield): “+++” (>50 = +++)

Substance: 157 (VEIAEAIQL; listed as Homo sapiens) [compound 157]
- Peptide exchange (MHC class I binding score, peptide exchange yield): “+++” (>50 = +++)

Substance: 158 (GENEDNRIGL; listed as Homo sapiens) [compound 158]
- Peptide exchange (MHC class I binding score, peptide exchange yield): “++” (>20% = ++)

Substance: 159 (GELLGRQSF; listed as Homo sapiens) [compound 159]
- Peptide exchange (MHC class I binding score, peptide exchange yield): “+++” (>50 = +++)

Substance: 160 (EEETILHFF; listed as Homo sapiens) [compound 160]
- Peptide exchange (MHC class I binding score, peptide exchange yield): “++” (>20% = ++)

Substance: 161 (EEGDTLLHLF; listed as Homo sapiens) [compound 161]
- Peptide exchange (MHC class I binding score, peptide exchange yield): “+++” (>50 = +++)

Substance: 162 (DEAQARAAF; listed as Homo sapiens) [compound 162]
- Peptide exchange (MHC class I binding score, peptide exchange yield): “++” (>20% = ++)

Substance: 163 (EEWMGLLEY; listed as Homo sapiens) [compound 163]
- Peptide exchange (MHC class I binding score, peptide exchange yield): “++++” (>75% = ++++)

Substance: 164 (SEYSHLTRV; listed as Homo sapiens) [compound 164]
- Peptide exchange (MHC class I binding score, peptide exchange yield): “++” (>20% = ++)

Substance: 165 (VELDLQRSV; listed as Homo sapiens) [compound 165]
- Peptide exchange (MHC class I binding score, peptide exchange yield): “++” (>20% = ++)

Substance: 166 (NEVLASKY; listed as Homo sapiens) [compound 166]
- Peptide exchange (MHC class I binding score, peptide exchange yield): “+” (>10% = +)

Substance: 167 (KEIGAAVQAL; listed as Homo sapiens) [compound 167]
- Peptide exchange (MHC class I binding score, peptide exchange yield): “+++” (>50 = +++)

Substance: 168 (QEIQSLLTNW; listed as Homo sapiens) [compound 168]
- Peptide exchange (MHC class I binding score, peptide exchange yield): “+++” (>50 = +++)

Substance: 169 (EENGEVKEL; listed as Homo sapiens) [compound 169]
- Peptide exchange (MHC class I binding score, peptide exchange yield): “++” (>20% = ++)

Substance: 170 (SENEQRRMF; listed as Homo sapiens) [compound 170]
- Peptide exchange (MHC class I binding score, peptide exchange yield): “+++” (>50 = +++)

Substance: 171 (SEDLAVHLY; listed as Homo sapiens) [compound 171]
- Peptide exchange (MHC class I binding score, peptide exchange yield): “++” (>20% = ++)

Substance: 172 (VEDGLFHEF; listed as Homo sapiens) [compound 172]
- Peptide exchange (MHC class I binding score, peptide exchange yield): “+++” (>50 = +++)

Substance: 173 (KEYDFGTQL; listed as Homo sapiens) [compound 173]
- Peptide exchange (MHC class I binding score, peptide exchange yield): “++” (>20% = ++)

Substance: 174 (TDKSFPNAY; listed as Homo sapiens) [compound 174]
- Peptide exchange (MHC class I binding score, peptide exchange yield): “+” (>10% = +)

Substance: 175 (HEIDGKALFL; listed as Homo sapiens) [compound 175]
- Peptide exchange (MHC class I binding score, peptide exchange yield): “++” (>20% = ++)

Substance: 176 (AENAVSNLSF; listed as Homo sapiens) [compound 176]
- Peptide exchange (MHC class I binding score, peptide exchange yield): “++” (>20% = ++)

Substance: 177 (QENMQIQSF; listed as Homo sapiens) [compound 177]
- Peptide exchange (MHC class I binding score, peptide exchange yield): “+++” (>50 = +++)

Substance: 178 (REYEHYWTEL; listed as Homo sapiens) [compound 178]
- Peptide exchange (MHC class I binding score, peptide exchange yield): “+++” (>50 = +++)

Substance: 179 (AEIKQTEEKY; listed as Homo sapiens) [compound 179]
- Peptide exchange (MHC class I binding score, peptide exchange yield): “++” (>20% = ++)

Substance: 180 (EEPAFNVSY; listed as Homo sapiens) [compound 180]
- Peptide exchange (MHC class I binding score, peptide exchange yield): “++” (>20% = ++)

Substance: 181 (GEIKEPLEI; listed as Homo sapiens) [compound 181]
- Peptide exchange (MHC class I binding score, peptide exchange yield): “++” (>20% = ++)

Substance: 182 (AQNLSIIQY; listed as Homo sapiens) [compound 182]
- Peptide exchange (MHC class I binding score, peptide exchange yield): “++” (>20% = ++)
